The values that follow come from the DeepSol protein solubility set.

This data set can be described thus: soluble on expression in E. coli; label from the status in PepcDB or PDB records.
Consider “ENLYFQGMKPIHVGLLGLGTVGGGTLTVLRRNAEEITRRAGREIRVVRAAVRNLDKAEALAGGLPLTTNPFDVVDDPEIDIVVELIGGLEPARELVMQAIANGKHVVTANKHLVAKYGNEIFAAAQAKGVMVTFEAAVAGGIPIIKALREGLTANRIEWLAGIINGTSNFILSEMRDKGAAFDDVLKEAQRLGYAEADPTFDIEGIDAAHKLTILSAIAFGIPMQFERAYTEGISQLTREDVRYAEELGYRIKLLGIARRAENGIELRVHPTLIPERRLIANVDGAMNAVLVKGDAVGPTLYYGAGAGSEPTASAVVADLVDVTRLHTADPHHRVPHLAFQPDQLADTPILPMEAVRTAYYLRLRAFDRPGVLADITRILADSSISIDAMVQKEPAEGEEQVDIILLTHVTLEKNVNAAIAKIEALDAVAGKVMRIRLEDLGAK”, for which the “soluble on expression in E. coli” value is “soluble”.

With “MGSDKIHHHHHHMSQAFLASENEQIKDYYEENGYVVVKNAVSLEKITDFINKYENFKISKNYYFRSQDTNRAEKLAINEKGFIERSILNPLELVYQKDFCRSSSNIICADSVSQILRTLTGKQKHTIWQTMFFDKSTGTVAHQDHYYLDSDPPGNLIACWYALEDIQEDAGAFFVVPKSHKGSVIPRKTDVPLFSDHEEYAKNIQKLINEQSYPIQPMLLEKGSVLFWHPYLIHGAFQNTNPKYSRKSFTAHFLPEGYSRLGISRVKPTVISTNPNILSWKKNLLHHAEASIRHWRYWLQVNLRPKSQRPYLEMRSSEYLDIK”, the “soluble on expression in E. coli” value is recorded as “not soluble”.

Take “LLKEYKNAWDKYDDKQLKEVFALGDRFKNFISNCKTERECVTELIKTAEKSGYRNIEDILAKGETLKEGDKVYANNRGKGLIMFLIGKEPLYTGFKILGAHIDSPRLDLKQNPLYEDTDLAMLETHYYGGIKKYQWVTLPLAIHGVIVKKDGTIVNVCVGEDDNDPVFGVSDILVHLASEQLEKKASKVIEGEDLNILIGSIPLKDGEEKQKVKHNIMKILNEKYDISEEDFVSAELEIVPAGKARDYGFDRSMVMGYGQDDRICAYTSFEAMLEMKNAKKTCITILVDKEEVGSIGATGMQSKFFENTVADIMSLCGDYDELKLRKALYNSEMLSSDVSAAFDPNYPNVMEKRNSAYLGKGIVFNKYTGSRGKSGCNDANPEYIAELRRILSKESVNWQTAELGKVDQGGGGTIAYILAEYGMQVIDCGVALLNMHAPWEISSKADIYETKNGYSAFLNN”: the “soluble on expression in E. coli” value is listed as “soluble”.

For the sequence “MGSDKIHHHHHHMASIRELHEQLVKKERSAVEITQETLDHIQELEPKLHSFLHITAQQALEQARAVDAKIAAGEEIGLLAGIPIGVKDNMCTKGIPTTCASRILENFVPPYESTVTQKLLDAGAVVVGKTNLDEFAMGSSTENSAYQVTANPWDLSRVPGGSSGGSAAAVAAEECVVALGSDTGGSIRQPASFCGVVGLKPTYGLVSRYGLVAYASSLDQIGPFGKSVEDTAILLKAIAGYDHQDSTSLKVEIPDYVASLKPDLKARSKLRIGIIKETFGEGLDSVVEQAVTKAIEQLQRLGAEVHVISCPNFRYGVPSYYIIAPSEASANLARYDGVKYGWRAPEGDNLLSMYKRTRATGFGAEVKRRIMIGTYALSAGYYDAYYLKAQKVRTLIKQDFENAFKNVDVLVSPTAPTTAFKAGEKTADPISMYLNDLMTIPVNLAGLPGLSVPCGFDEQGLPIGLQLIGKVLREDQLLQIAYAYEQSTSWHLSQPKIS”, the “soluble on expression in E. coli” value is “not soluble”.

“MSLQIAANKAVSIDYTLTNDAGDVIDSSAGGAPLVYLHGAGNIIVGLEKALEGKNVGDELSVAIEPEDAYGEYSAELVATLTREMFEGVDELEVGMQFHASAPDGGMQIVTIRDIDGDDVTVDGNHPLAGQRLNFKVKVVDVREANAEEIAHGHIHGEGGHHHEGGSHHHHHH”: the “soluble on expression in E. coli” value is listed as “soluble”.

For the sequence “MIDENLIKINLICESQDEVFHYLATLVVDNGYANNTESVVQALKLRESEGTTGMMEGFAIPHAKDKSIVKPSIAILKLKTGVEWHSMDGQLINNVIALFIPEKEAGTTHLKVLSQIARLLVNKTFKEKIKEADTILELKELLTEKLDLTS”, the “soluble on expression in E. coli” value is given as “not soluble”.

For the sequence “MIVGSHQQYVVPSYSAAYVPSAYAYPSVYSPYVAAAAYPSVWAWGSNKNKDDAAPRAFARPSALLNNQKPTTA”, the “soluble on expression in E. coli” value was “not soluble”.

For the sequence “MASVTLKNVCKAYGDVLISKNVDLEIQEGEFVVFVGPSGCGKSTLLRCIAGLEDITSGDLYIGEQRMNDVEPSKRGVGMVFQSYALYPHLNLYDNMSFGLKLSKADKSEIKKRVDHAAEILQLSHLLDRQPKALSGGQRQRVAIGRTLVSQPNVFLLDEPLSNLDAALRVQMRSEITKLQRKLGCTMIYVTHDQVEAMTMADKIVVLDAGFVSQVGKPLELYHYPQNRFVAGFIGSPKMNFMSVFIEGVEKDRVQVQLSNGTTFWIPVDGTTVTRGERMSLGIRPEHLVEAEHGDAKIEGKVMIVEKLGNETQVYMNLKGSDSDVIYRQPDTLDVETGDTLTIGIPAHRCHLFHSDGRACRRLHKEKGVDLPA”, the “soluble on expression in E. coli” value was “not soluble”.

As for “MGSDKIHHHHHHMNTLLKQLKPYPFARLHEAMQGISAPEGMEAVPLHIGEPKHPTPKVITDALTASLHELEKYPLTAGLPELRQACANWLKRRYDGLTVDADNEILPVLGSREALFSFVQTVLNPVSDGIKPAIVSPNPFYQIYEGATLLGGGEIHFANCPAPSFNPDWRSISEEVWKRTKLVFVCSPNNPSGSVLDLDGWKEVFDLQDKYGFIIASDECYSEIYFDGNKPLGCLQAAAQLGRSRQKLLMFTSLSKRSNVPGLRSGFVAGDAELLKNFLLYRTYHGSAMSIPVQRASIAAWDDEQHVIDNRRLYQEKFERVIPILQQVFDVKLPDASFYIWLKVPDGDDLAFARNLWQKAAIQVLPGRFLARDTEQGNPGEGYVRIALVADVATCVKAAEDIVSLYR”, the “soluble on expression in E. coli” value is “not soluble”.

As to “MTENNVDPYEVVKKRYESTVDSFVLSDLFQPTLESNQELIDDVKDNRLVIYTAFTGNYDELKEPEFIDENCDYVCFTENPDLESDTWEIVQMEKSTLDDNRKAKQYRLFTDKYFPEYKYSFWLDGTFKIVGSIREYIYKYAKSKMLVVVHPERDCIYDEAVMSMPFPRYSNYTMTKQVEKYRSEGMPEHYGLPATGALFRAHNDPEIISIMRQWWREVVNYTNQDQLSLPYVMWKNNFHPSVSDVYYWVNEYWSKEGSYQHNFEIEDYITSRNLIESLEGNIKDKNTLTKEEINLLFNDIDALRDEANALNIARDHWDRQIRGVRNSTSWLEHHHHHH”, the “soluble on expression in E. coli” value was “soluble”.

With “PVMHPHGAPPNHRPWQMKDLQAIKQEVSQAAPGSPQFMQTIRLAVQQFDPTAKDLQDLLQYLCSSLVASLHHQQLDSLISEAETRGITSYNPLAGPLRVQANNPQQQGLRREYQQLWLAAFAALPGSAKDPSWA”, the “soluble on expression in E. coli” value was “soluble”.

With “MQAHQSLHPSSAYLLDPRDTHHFIRKPTISMETTTEIPAGGATSLLPIVRAAKTPPIPLTVPCAIAGVMMEFECLLRGKRMLVNAMVYNVKTTIAGHPWE”, the “soluble on expression in E. coli” value is recorded as “not soluble”.

“MSGGEAQGKRKQWQRWLSPRYVWRRLRHNIGPKLVSLGAALVLWSVSTGDQRAQVQQSYDVPITVRDTTGASGSDERRAVSDLNPETVRVTLTGRPERLNELRPSNIEALLDVTGVPEGSFNRPVQIVAPSNTVLSKQVPERVQGFVDSELSRTLTVTLGVASPAENSLPRFEVRPSEVQATAPSRVLNQVTRVVTSPVDLDPGEEREAPLIALDSRGRVVEPVTLHPASVSVQRLDTGTLPVKTLPVVLGAPPASLRVQSQTLQPRTVRVVAAPELLGRLREVSGQVDYRVGSSTLPVTLRLPDGAQALETVSVSLVVERIKAPDPGAGAPTQQKSGASSSSGGNLEHHHHHH”: the “soluble on expression in E. coli” value was “soluble”.

Take “MTEVNAFADTPWRAGVIQDFARSELFDRTFEEGMQLVEETAAYLDGAGRHDSKVLSRNAALGYATESMRLTTRLMQVASWLLVQRAVREGEMPPEAACAEAYRLAEEAPADGPAVEELPFGLMNLLQRSERLYERVRHLDRRMYVESPNEEAPRPVQNQLDRLTAAFGG”: the “soluble on expression in E. coli” value is listed as “soluble”.

In the case of “MGSDKIHHHHHHMKITPIAFESLGVRSQATLIETKDLRVLVDPAVSLAPRRYNLPPHQREVDRLTQLAKVLVDVAKDVDVIVVSHYHYDHHDPGYVIPTDIYKNKIVFLKDPQNMINNSQKYRRAPRFLRSIKDKPRKIEIADGKTFEFNTTTISFSPAVPHGADERLGYVIQVAISDKDSTVIFTSDIEGAPKDVHLKFTKEKMPTVIIIDGPLSYLLGRALKEEELENSIRNMEEIIKNGLETVIIDHHVLRDINYAQVLKPVHDIAKDLGVRVTTAAEYLNLEPLILEARRKELYKEDNRPAKIPRGLANLLNAGDG”, the “soluble on expression in E. coli” value was “not soluble”.

As for “MGSDKIHHHHHHMSQSAITVDQVTVTYRNGHTALRDATFQVPGGSIAALVGVNGSGKSTLFKALMGFVHLAQGDITILQQSVNKALKKNLIAYVPQSEEVDWSFPVLVEDVVMMGRYGHMGWLRRPTAHDHACVDAALARVDMQEYRHRQIGELSGGQKKRVFLARAIAQDGQVILLDEPFTGVDVKTEARIIDLLRELRDEGRTMLVSTHNLGSVTEFCDYTVMIKGTVLASGPTETTFTAANLEQAFSGVLRHIALSGGEEHIITDDERPFISRRVASGGKSS”, the “soluble on expression in E. coli” value is recorded as “not soluble”.

As for “MRHLLDFQGWSRTEVESLLDTARVMREVLERPIKKVPALQGFTVATVFFEPSTRTRISFELAARRMSADVVSFAAQTSSLQKGESYKDTLLTLEAMGVDAYVIRADSAGVPHQATRWVKGAVINGGDGRRAHPTQALLDAYTLLEALGTLEGKKVAIVGDILHSRVARSGAELLSLLGAQVFCAGPPSLLPQSLPGAHLTPRLEEALEEADAVMVLRLQKERMEAGLVHLEDYVARYQVTEKRLALAKPQAPLLHPGPMNRDVELEGTLADSARSLVNRQVQNGVAVRMAALYHLLVGKEKA”, the “soluble on expression in E. coli” value is listed as “soluble”.

Consider “MAHHHHHHMRTDKCVSEAVQTFREAQNLLPTLYTHLSALENIMTQKGALVGAARRREQCFAKALPASHFLCMDTGTEERTLPQATTAGPSCVHTTSPVMTSPLGVLAAFSASTVHHLVAQHQRDVEELLGVVSRITQRSWSQKVEQLKSKIAQLERASEVGETPEHPPSAGGIVAVSSTPASSSYFATASELSVALYGFAACLLKMGNVLQETMLALRKDARLSLMAHAAPGSAALLTSTSADTASHLAAMLAREDRTSEGMSLLPMHSSHCGSLHEATSASSPFSGAAGVQAAPLQPMRLVDAVGKLKSFLEARWKSCCDSYLAPESHLLLALV”, for which the “soluble on expression in E. coli” value is reported as “soluble”.

As for “MAHHHHHHMERSLYYTPQLLWLQVMDRMPYEFTHYFVSSPPPHHEAMLSGIREQYGRPYSAAKPFDVELLGRLWNGHSRVMFATDNLVFSAVDHSVSDRWKEMGFQGTDPSTDFRGAGIFGLAQLVYLVEHHPEEWSAILTPDFMAAAAGLNVTMRLATMLGINSSLNQLSSSVLSKYSAREARLQLCRFIFDPSVDVATQRLSEVYCFAMRLLHYRWMRSTRNIMEFNQQLSSMYTELDRLLFLCNTLEELCSLL”, the “soluble on expression in E. coli” value is “not soluble”.

Consider “MGSDKIHHHHHHMKLNLRSLEAFRETMLSGSATAAAGRMGLTQPAVSRLIAQLEQEVGFELFYRERGRLSPTPEALIIYDEIDLAFGGLERVDALARDIAAFNTGLLKIVAPPSLSESVLSTILPRFMARFPKVRIAIESRSTATARAMVANRTVDCGFVKLPLDRSDISTVTLSTSETVCVLPDTHPLTAHEVLTPELLRGEPLVLLGAGTWTRRQIDDAFRERGVRPDVRVETHTVGSACALAAGGLGVAIVNALLADNFARPGVAIRVFRPQILHEYAFMTSALAPMNRLAAAFLEEAQTFFREQAR”, for which the “soluble on expression in E. coli” value is given as “not soluble”.

As to “MSKNDHRITHNKSDKDNLDDDFSLFRDEVKGVKKLRQDTILHAPNRNPKQKEIRRTEREASDNDFYFSDEFMPHLTDEGPTRYARSDVSKYEVKRLRRGVYVPDVFLDMHGMTQQEAKRELGAMIAYCLKENVHCACVQHGIGKHILKQNVPLWLAQHPDVLAFHQAPLEFGGDGALLVLLSIPEK”, the “soluble on expression in E. coli” value is recorded as “not soluble”.
